From the NTF2 design screens of Basanta et al. (2020)

Assay: protease stability score; higher = more stable; yeast display proteolysis, trypsin and chymotrypsin;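 note: relative to predicted unfolded state with 0 unfolded-like and 1 meaning tenfold more protease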

Sequence	protease stability score
DEEEEIFRHLFKLFVDATETGDEHILKELLDPHTRIHVNGQDFHGRENAIHFWRHMRIDEIRLKEIEVQGDKIHITGHVRGQIDGQQVRTDFELIMVKIDGRWKIHSEIYH	2
SEDEDHARLMFELLLRMITTGDEESLRELVDPNVRVSVDGVDLHGWDSLSKFLKHIRIRVDHSEMHDMRVIDGVLQANTHMQITVEFNGRRVQRQVETRVEVVKINGKWAIHRFSVH	2.55
SELEKFHEESLKSVLESWITGDEHLNRDLVDPDAKLNVNGREHHGWELITILLSQMRVHDFKRRDIRFQGDKIFIDGEIDGEINGQRIRLRIDIIAVKVNGKWLIKEVRVH	1.69
DEKERLADEILEDIRKSVHTGDWDEYLRLLDPNVRTVINGKTVHGREEIKELMERLGIDHHHLRVDHWEIIDGKVHVEIEVTLQIGDKHFSRSSHILIMKFNGQWIVHTFRLH	1.73
SEEEHDVERSIKHFLHILETGDWKELYEQMDPNVRIEIDGKFIIGREASVHHFNRYDHHRSRIEIKHVDVYGDKLNVHGHIHEHFSVNGKDITRSMRVILHARKVDGQWIHTEVRYK	1.32
SEFENLQRLWLEILEHHSETGDERFMSRLADPNAKLLVNGKEFHGMEEVVEFIERLWEKFKNVRVEIHDFTVQGNKIDMDVILYYGEKVHRTEMHAVKYDGRWFMRELSIR	1.38
DEHEEEAHKFVELKRRIWKTGDERLKSELADPNVKITFNGKELHGMEELIKVNREMGIKHVQIEDIDFQGNKVMVFGRSNIGDFNNRVEIIAEKYNGKWSLSEVRIH	0.322
DEEEKLRQWIFHLWIKILETGDEKLLEELADPHVLHRFDGVHAHGRERMSSWLRELIERLGVKVHELNSIHIYGDKARINFQVHVDGQRKEMTIHMLMVDGKIKSTQLDRREH	1.09
SEEEKLLEELAKMFIELWLTGNEEHLMHLADPNVRFRQGDKRSHGRENLKRLLHELHEEIRIHDIRMKDVRFVNGRSIFDGHLIVQVNGVEIRLDAELTIISVNGKIKEIEIRHR	1.08
SEVEEDTKRVLELLRESWKTGDEHSIKEMLDPNVKILVGDKEFHGMEDWHRIYKRFDYISIRHVRLKDSRHINGVVYLIIHIESEYRIGDKTTEKRYDASIINEKVDGRWIIRSIEIH	1.91
DDEERQAREFLKNYIRSLLTGDEDTLDELVDPNARWHVGDYHMIGRDSVSFLTKHLRIKHIEIKDIEIYGNKAIVLVHMHGIIDGKERDTDIIIFVEKINGQWKVREHRIS	1.15
DEEKKEQRHFLKKLADSIATGDEESLEKMVDPNAKSVVNGVEQHGMELMVENLREWLERLGVTKISFHEKRFRLIGNKLEVDGTIEVNGKKFESHFIVEKVDGQWRIREIRLH	0.931
SEEEHYRREMIHFSREVWETGDWDSLMNLADPNVRIEAENHDLHGREFFVKLMEEISRKFKNVRIIIRHLHIQGDKVEMHSEIIFNGRSVHVTFFALKVNGRWIFKEMVFI	0.925
DELEHFLLEILRELAHALETGDEERLTDLIDPHARINVDGVEIHGMDHWRELLHQIRFSIEDMHITHVEVQGDKIIIHGRVHVSNEVDGVENRSETHEIWYMKKFDGRWRVTTIEVK	1.3
SEEEKHVHRFLSEWTRSLKTGDEQRIVRLLDPTARLFFEGREYHGMETIAHQIVHDIRHHGFTLEVEIQDFHVQGDKAEHDGILIVKVDGKEIHRKLILVVTKIDGRWFLSEVIIK	0.923
HEEERILRFYLEWIEHHLRTGDERFIEENADPNVKIRVNGKDIHGRERYNEVWDKVLRDFGVDHTNDKDTTAYDGRIEVHEEWRFNGRRVDVETIIIFINGVIKHIEIRIRIE	2.12
DREEEKLLHAIKLLLHNWMTGDEDSEIDLMDPNARIVWNGVELHGMTEVRRFLHEYHRRFDVFTHTHIDHYRVIGDKAESHIRLEGSVDGRTIKHQTFILMSKYNGKWTNQTLTFE	1.13
DEEDRELEEMLELIIHAFKTGDEEIMKRLFDPNTRIRINGREEIGWEHAVKILREWRFRHVILRRKHKQGDKLHYEFEVHGHFDGQQDSVHVRILILKVNGRWIITEYIFV	2.51
DEIRKMVEESFEIILHSILTGDEHIEEFLADPHVRILINGVTFHGREEFHKLIEHYLKHWRIKDSKVDHVHAQGEKIEMRVTIHGTVDGQEQTREVIIIAKKVDGRWSMKHVEVR	2.08
SEVREDIERILTQWSKIMETGDEHTAKRLADPHVKIEVDGRTSVGMETWMEFLRDLGFKVIHVRVHIEHVRDIDGKARVDIRLVIESNVGDKTERYEHETHMIIEKIDGRWVLTRILLK	1.01
DEEHKLAEHYLRIWIHALITGDFHKILHLMDPNVRNEVGDKEVHGREEWEKFLKRVKNVVIEHVELDHLLVVDGRVHIRVTLHMSYGDKTEDHDIHVLMHKVDGRWYIKSIHVK	2.43
DEKEEHFTTMMEIWLEIFRTGDWERLEKLMDPNVRHREVVDGRHLHLHGMENVSRLLHERENKLGANHIDLTHADIVNGRASIEGRVNYGDKRHKIRFDIHIVNGRVQHIQDIKI	-0.034
DEFQHMAELASTLFQRSNHTGDEHSLQEMLDPNVRVIVGDKEFHGMEELLKTLRKELEILGVQRIETEVHQVNVQGNKINVDLILHVNGRERRIHLWAHKINGRWITERIEVR	0.922
DEDLERARHAIEELIENWRTGNFREIERLMDPNVRIIIGDKTLHGRESMHRFVEEARLEHFELRHVSIVNGRVHVHGTEDWRIGDKRETREVRIVIHKVDGRWNFEFKIIH	0.983
TEEEKIFKKLMHLILNAFLTGDEELLHEYVDPHARVRVGDKEFHGRENIIHALRMLFHHLGIDHIEIDKVDVFNGRMEVHGTFHFDGKNVESILRFDVYNGRLKKEEIEWR	0.726

Sequence	protease stability score
SELIRASETMMKAIADSEETGDWRLLRELFDPHVRIEIGDKKYHGWKYLKHFMEELRIESRTELEHVDTFDGKVRVEGTLTTDLRVNGQEHTINLDIRSIIVKIDGRWIIHKVKIH	1.14
DEEEKRAHEIVRRFLKWFLTGDEEASRKNMDPSVIMVINIGDKRIELHGMEQVSEFWHETVRRYDHIDIKLKDIEVQGDKAVTHGHLELRVGDKRFETDVQIILIYIDGRISFMSVNIV	2.48
HESEEYAHRVSKDFDRAMRTGDWLRLLELIDPNARLHVGEFHVHGMEDIEKWIRHFLHRVDVIHIRVRDMRVQGEKVDVDYEIEERQGDKRRHYESRTIILKIDGKWHIKEIHIH	1.14
DEEDEHVKKAAEDFLRWWLTGDESRLLELFDPNMLLIIGDKHIHGRESVVHFFSELRERLGIDHIELEDVHIREVNGRAEFHSHILLHINGQKVKVDVRIHFHKVNGRWLFEHEHVEIR	1.32
DEEERHTHEWFKELLHNLQTGDEDRFRQMADPNVQILVDGVEYIGREHAAHWMIIHIRHLRIEHEHDEEIRVFDGRIDVRHIRVGSYGDKRTDTRVHIDVNIIDGRIKFLRIHYS	0.869
DELEHFALKFAEEWLQHYLTGNEEMISKLHDPHVKLHIGDKDLIGWEKFEEFLRETLSRVDHLHFNIRSVQSQGNKIVFDGKYIVIQGDKRYEFDIEFHIVVFNGRVHRIHYESH	1.58
DEEEKTFEQIVRHLIDDLVTGDWEKLRDYFDPHVRVEIGDKRIVGRETLVDELSHWRVKHVRVELHDYRVINGRIEVHGSVDFRGNIDGRELRHSYETKIIFDKINGRWTLQSHHVL	1.21
SEDEEHAELALRLWEIVEKTGDETEARKMFDPHTRIIIDGRDLIGWSFIRHLMRRFDHVDIDHKREKRREFQGEKVRMDIEVDMEFVVGEKIYRIDFRVNIVLLKVNGKWRIHSLEIK	2.47
DEEEEMVLEMAYLFIHALHTGDEDMIRHLADPNMKVDINGQEHHGRDMSNEWWRREIDQIKNVRVDIDIDELHVIDGVAYVRTTVRYHFDGRTIVYFTTFDLIIVNGKIKSVKWEVE	1.83
DEILHAWSRALTILLEIWKTGNEEEVEKMFDPNTRLIIGDKILHGREHIEDFVRRVDVADMHEFRVHDSHKYGEKIDIDGHVTGRLVIGDKEVRQETRVRSIIIKVDGKWIIHRLTFI	0.907
SEEEEQLIRMADVFLHLFLTGDEDTLRSLFDPNAKLDINGVHSVGRENVKKAKEEWENKLGVNHHRLHEIRVVNGRTDLDGEVEWDGKRQRVRLVLVLINGRIRHEKIIFE	1.03
DEIKTELEKWLREFIRDMRTGDEDTLRQQADPNMRLDVNGQEIIGWDRILREEIRLRHDLGLTQIHVTVKDHRIQGEKIHNRGEIIYGEFRLDTILIVKKVDGRWRATDMVVV	1.17
DEEERHVRELLQRLINALDTGDWKTIHELFDPHARMEINGQHYHGRETINDKLKEMRVSVHDWEQKHIDTFEGHAVVHTHVHIVYIVNGVKHINDTREMIVFTKINGRWVIESRHVK	0.563
SEDEERARRFFEELIHVLHTGDEDSLIKMADPSVRLDFNGVEAVGREEFERMFKEIWREIRLEDLTSHHIDVFNGRIRIESKSHIEVNGVQITRDELVIVTKINGKWHLHSREVK	1.56
DEEEEDIRRAVTRFIEVILTGDEHSLERLMDPHVKIDIGDKHLHGREAKDRLRDEMRRKFKNLRIHMRDWHLEIYDGVAHSTFDFELEINGKRTHLELRVDVRKVDGRWLIDSYEIKIR	1.15
DEEERHTREMADWFITLFLTGNEEIMMELADPNMRLEHISEDEHYEYHGMHDVSRWLHELLLKFKNIRVRLRRIRIQGDYVIIHQDLNYNGKRVHVIIIVHIFDGRIKSLRFEFR	1.67
SELEEIAEEVARRFSHFIETGDEEKLWKYFDPHVKIDIDIDGRTKELHGMERFVFFIRYLGLDRVELRDHRIEIQGEKAILDGTTHINGRTRKTNFHIFVFNGRIKFMQVHII	1.48
SELEKLAEEMLELFIEIFLTGDWRTFLRLADPHTRLNVDGKNNHGREEVRRHLEEELRQMRWHDVKIHDFDVIGEKAHVRLRVDGIINGRRIDFEMELEITVVNGVIKDVRVRRR	1.48
DEKDNVVEHLARRLIEAELTGDWKFLSELIDPNVRVQVGNKKSHGREEYVHIAEEWWIHEQHIRHVEIQGDKVHLEVETDMVVDGRRVRIEIEIHIHIINGRIKEIRINIV	0.989
DDETEHLEKSVRDLVTSIKTGNWEEFYKMFDPNMRVDINGQQYHGRENAVEMVRQLWERLGAKHVHLTEIRYYGDKLELIMHVHFDGRDKEEEYIAVKIDGRWLLTEVRFK	2.08
NELEKHLREMTREMLEAWRTGDFDHLEHLADPHVRIETIYNGQREEFHGREWLIKAVERLDRLMGIDHIYFQEWTTIGDFVDVDLRTQVGDKRIRLHMELNVVNGRIKFHRIEVE	1.24
DEDDEKEKFLLELLLEALKTGDWQIFEDLADPHMKFIFNGREYHGMETFSRLMEEFLKRFPNLRIRRIEIEDHHKQGNKVELDARLYSSQGNKRLNHKMILISEKINGRWLIHSLSIE	2.61
DEDHRDMEEFMRIFIDSLKTGDEESLARMLDPNARTKVNGVDFHGRESALEVLRRLWEEFGVDHMELKSREVEVQGNKVHIHLVVTLIQGDKHIHVRYHINTIKVDGRWLLHEINVEIR	1.36
HELEHELEKFMQWIIEFLETGDEDALSTLLDPNVRYVINGQNLHGRSLLITTLHRLKEEIRVHWKIRDLKIQGDKAHSDGRFTIIVNGRKHSVDSHINVTIVDGRIHRVEIELR	1.7
DEEKEEIRQFEETFVEAMKTGDEDVIRHLLDPHVRVDINGQTFHGREIVIEMVSRFPNVQVHIDDLDVQGNWAHSDVQLHQGDKYIRLHIDVTKIDGKWRITFLKFK	1.45
